Reference: patent publication US20260232732A1 (FUNDACI INSTITUT DE RECERCA CONTRA LA LEUC MIA JOSEP …, published 2026)
Each block holds one binder with its values, some of them ahead of it. Where no end group is shown, it is not given here. The star is where a group is joined. Biotin = O=C1N[C@H]2[C@H](CS[C@H]2CCCCC(=O)*)N1

Assays:
[1] = target: T1, biotin-peptide TSSMEDYVNF (human); experiment: ELISA biotin-peptide; scFv 10 ug/mL; repII
T1 peptide: Biotin-TSSMEDYVNF
Experimental: (§1) The peptides were synthesized naked or with a N-terminal Biotin modification with a purity of >98%. All four scFvs were verified by ELISA that can be detected with anti-His antibodies. ELISA was performed for scFv-peptide binding validation. Briefly, naked peptides were coated (50 μg/mL) in 0.58M carbonate-bicarbonate buffer pH9.5, 100 μL/well, 4° C. O/N. Then after blocking (3% BSA-PBS, 300 μL/well 37° C. 1.5 h) and washing (PBS+Tween-20 0.05% v/v (0.05% PBST), wells were incubated with each purified scFv antibody at concentration of 1 μg/mL in PBS at 37° C. 1 h. After washing (0.05% PBST), wells were incubated with secondary antibodies (goat anti-His IgG-HRP) in PBS, 37° C., 30 min. After washing, and incubation with TMB substrate, reactions were stopped with 2M HCl and reading was quantified at OD450.
(§2) ELISA with biotin-conjugated peptides (5 μg/mL) was performed very similar to described above with minor modifications.
(§3) A full curve ELISA was performed for each positive scFv/biotin-peptide pair in order to confirm previous results. Tables 15-17 show ELISA results of the dose-dependent full curve for each positive peptide with scFv “CCR9_HUM”, “Comp-2” and “Comp-3”, respectively.

[2] = target: T2, biotin-peptide SMEDYVNFNF (human); experiment: ELISA biotin-peptide; scFv 0.15625 ug/mL; repI
T2 peptide: Biotin-SMEDYVNFNF
Experimental: as §1, §2, §3

[3] = target: T3, biotin-peptide SSMEDYVNFN (human); experiment: ELISA biotin-peptide; scFv 0.15625 ug/mL; repI
T3 peptide: Biotin-SSMEDYVNFN
Experimental: as §1, §2, §3

[4] = target: T4, biotin-peptide MEDYVNFNFT (human); experiment: ELISA biotin-peptide; scFv 0.15625 ug/mL; repI
T4 peptide: Biotin-MEDYVNFNFT
Experimental: as §1, §2, §3

[5] = target: T1, biotin-peptide TSSMEDYVNF; experiment: ELISA biotin-peptide; scFv 0.15625 ug/mL; repI
Experimental: as §1, §2, §3

[6] = target: T5, Peptide 1-BSA (MADDYGSEST-C conjugated to BSA) (human); experiment: ELISA, BSA-conjugated peptide coated
T5 peptide: MADDYGSESTC(BSA)
Experimental: (§4) In brief, plates with each non-conjugated peptide (50 μg/mL) or BSA-conjugated peptide (5 μg/mL) were coated in 0.58M carbonate-bicarbonate buffer pH9.5, 100 μL/well, at 4° C. […] After washing, wells were incubated with the 3, 3′,5,5′-Tetramethylbenzidine (TMB) HRP substrate and reactions were stopped with 2M HCl and OD450 was recorded.

[7] = target: T6, Peptide 2-BSA (GSESTSSMED-C conjugated to BSA) (human); experiment: ELISA, BSA-conjugated peptide coated
T6 peptide: GSESTSSMEDC(BSA)
Experimental: as §4

[8] = target: T7, antigen peptide-BSA (immunisation peptide #1 MADDYGSESTSSMEDYVNFNF-C conjugated to BSA) (human, extra C-terminal Cys conjugated to BSA); experiment: ELISA; Ab 0.03125 ug/mL; repI
T7 construct: also called Positive control antigen peptide-BSA; MADDY peptide
T7 peptide: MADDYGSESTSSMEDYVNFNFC
Experimental: as §4

[9] = target: T8, Peptide 4-BSA (SMEDYVNFNF-C conjugated to BSA) (human); experiment: ELISA; Ab 0.03125 ug/mL; repI
T8 peptide: SMEDYVNFNFC(BSA)
Experimental: as §4

[10] = target: T9, Peptide 4, non-conjugated (SMEDYVNFNF-C) (human); experiment: ELISA; Ab 0.03125 ug/mL; repI
T9 construct: With the extra C-terminal Cys
T9 peptide: SMEDYVNFNFC
Experimental: as §4

[11] = target: T10, BSA (negative control coating) (bovine, UniProt P02769 25-607); experiment: ELISA; Ab 0.03125 ug/mL; repI
T10 construct: also called Negative control BSA
T10 sequence (P02769 25-607 limits assumed): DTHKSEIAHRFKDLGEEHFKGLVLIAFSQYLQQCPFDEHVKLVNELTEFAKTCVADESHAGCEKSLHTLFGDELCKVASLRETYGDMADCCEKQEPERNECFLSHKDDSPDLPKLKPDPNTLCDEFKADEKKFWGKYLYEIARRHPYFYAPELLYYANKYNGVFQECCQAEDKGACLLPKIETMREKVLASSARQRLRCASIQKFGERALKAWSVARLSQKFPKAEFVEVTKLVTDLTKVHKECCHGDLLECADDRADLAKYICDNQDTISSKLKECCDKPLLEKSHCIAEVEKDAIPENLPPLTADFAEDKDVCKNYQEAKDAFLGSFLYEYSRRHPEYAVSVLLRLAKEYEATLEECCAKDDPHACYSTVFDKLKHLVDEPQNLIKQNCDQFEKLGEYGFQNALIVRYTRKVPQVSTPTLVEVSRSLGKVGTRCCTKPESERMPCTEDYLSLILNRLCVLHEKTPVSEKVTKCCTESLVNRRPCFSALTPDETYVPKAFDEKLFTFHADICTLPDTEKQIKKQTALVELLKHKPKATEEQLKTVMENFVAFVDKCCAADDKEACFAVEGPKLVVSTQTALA
Experimental: as §4

[12] = target: T5, Peptide 1-BSA (MADDYGSEST-C conjugated …); experiment: ELISA; Ab 0.03125 ug/mL; repI
Experimental: as §4

[13] = target: T6, Peptide 2-BSA (GSESTSSMED-C conjugated …); experiment: ELISA; Ab 0.03125 ug/mL; repI
Experimental: as §4

[14] = target: T11, Peptide 1, non-conjugated (MADDYGSEST-C) (human); experiment: ELISA; Ab 0.03125 ug/mL; repI
T11 construct: With the extra C-terminal Cys
T11 peptide: MADDYGSESTC
Experimental: as §4

[15] = target: T12, Peptide 2, non-conjugated (GSESTSSMED-C) (human); experiment: ELISA; Ab 0.03125 ug/mL; repI
T12 construct: With the extra C-terminal Cys
T12 peptide: GSESTSSMEDC
Experimental: as §4

[16] = target: T13, Peptide 3, non-conjugated (SSMEDYVNFN-C) (human); experiment: ELISA; Ab 0.03125 ug/mL; repI
T13 construct: With the extra C-terminal Cys
T13 peptide: SSMEDYVNFNC
Experimental: as §4

[17] = target: T14, Peptide 3-BSA (SSMEDYVNFN-C conjugated to BSA) (human); experiment: ELISA; Ab 0.03125 ug/mL; repI
T14 peptide: SSMEDYVNFNC(BSA)
Experimental: as §4

[18] = target: T5, Peptide 1-BSA (MADDYGSEST-C conjugated …); experiment: ELISA; Ab 0.01563 ug/mL; repI
Experimental: as §4

[19] = target: T6, Peptide 2-BSA (GSESTSSMED-C conjugated …); experiment: ELISA; Ab 0.01563 ug/mL; repI
Experimental: as §4

[20] = target: T14, Peptide 3-BSA (SSMEDYVNFN-C conjugated …); experiment: ELISA; Ab 0.01563 ug/mL; repI
Experimental: as §4

[21] = target: T15, Pep1-48, N-terminal domain 1 of CCR9, amino acids 1 to 48 (human); experiment: BLI, His-tagged scFv on NTA biosensor, Pep1-48 as analyte, 1:1 global fit; paragraph 309 says that Comp-1 does not bind, in agreement with the BLI results of Table 11
T15 construct: Chemically synthesized (Genscript), purity >75%; also called CCR9 N-terminal 1-48 peptide
T15 peptide: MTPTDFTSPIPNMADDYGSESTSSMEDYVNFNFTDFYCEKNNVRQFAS
Experimental: The affinity between the CCR9-N-terminal domain 1 of CCR9 and the different scFvs was determined by Bio-Layer Interferometry (BLI), a technique that allows quantitative and qualitative measurement of biomolecular interactions in real-time. Briefly, scFv were immobilized onto NTA Biosensor (Sartorius) and quantification was performed in an Octet RED384 (Sartorius). scFv were dissolved in PBS (150 mM NaCl, 38 mM Na2HPO4, 12 mM NaH2PO4, pH 7.2) and a buffer containing 0.03% Tween-20 in PBS, pH 7.2 was used for baseline steps.

OD450 [1]: 1.36 OD | OD450 [2]: 1.63 OD | OD450 [3]: 1.64 OD | OD450 [4]: 1.41 OD | OD450 [5]: 0.22 OD
B1: CCR9_HUM2 scFv (humanized anti-CCR9 scFv, SEQ ID NO: 17 with C-terminal 6xHis tag) (scFv)
scFv: QVQLVQSGAEVKKPGASVKVSCTASGYSFTDYIIYWVKQAHGQSLEWMGYIDPNNYNTRYSQKFQGKVTITVDKSSTSAYMELNSLTSDDTAVYYCARDVYWGQGTTVTVSSGGGGSGGGGSGGGGSGGGGSDVVMTQTPLSLSVTPGQPASISCRSSQSLVHSNGKTYLQWYLQKPGQSPKLLIYKVSNRFSGVPDRFSGSGSGTDFTLKISRVEAEDVGVYFCAQSTHVWTFGGGTKVEIKRAHHHHHH

binding result [6]: no binding (tested: 1 ug/mL) | binding result [7]: no binding (tested: 1 ug/mL) | OD450 [8]: 1.28 OD | OD450 [9]: 1.44 OD | OD450 [10]: 0.67 OD | OD450 [11]: 0.01 OD | OD450 [12]: 0.01 OD | OD450 [13]: 0.01 OD | OD450 [14]: 0.01 OD | OD450 [15]: 0.01 OD | OD450 [16]: 1.65 OD | OD450 [17]: 1.66 OD | OD450 [18]: 0.01 OD | OD450 [19]: 0.01 OD | OD450 [20]: 1.33 OD
B2: anti-CCR9 antibody clone 115 (murine, from hybridoma #115) (antibody, V domains shown)
VH: QVQLKQSGPELVKPGTSVRVSCTASGYSFTDYIIYWVKQSHGRSLEWIGYIDPNNYNTRYSQKFKGKATLTVDKSSTSAFMHLNSLTSDDSAVYYCARDVYWGQGTTLTVSS
VL: DVVMTQTPLSLTVSLGDQASISCRSSQSLVHSNGKTYLQWYLQKPGQSPKLLIYKVSNRFSGVPDRFSGSGSGTDFTLKISRVEAEDLGVYFCAQSTHVWTFGGGTKLEIKR
notes: Mouse IgG1

binding result [21]: no binding
B3: Comparative antibody 1 (Comp-1) scFv, SEQ ID NO: 10 from WO2023/037125 A1, His-tagged (scFv)
scFv: QVQLKESGPGLVQPSQTLSLTCTVSGFSVASYDMHWVRLPPGKGLEWMGIIWANGNTHYNSGLKSRLSISRDTSKSQVFLKMNSLQTEDTAIYFCTRGGFAYWGQGTLVTVSSGGGGSGGGGSGGGGSGGGGSDVVMTQTPVSLSVSLGGQVSISCRSSQSLVHNNGNTYLSWYLQKPGQSPQLLIYKVSNRFSGVSDRFSGSGSGTDFTLKISRVEPDDLGVYYCGQGTQYPTFGGGTKLELKHHHHHH
